A protein production outcome set (Wang et al. 2014)

Test: label from the status in PepcDB records

MYEGEIAIGPVHSTMLEPHRLRLFIEDEIVKDAELTIGVNHRGVERLMEGLPVEKACILCEKICGICSHIHLWSAARVAEIGCNIEVPERANHIRIIVEELERLHSHTLLFGHAFEILGHETMSMRCFMLREPIMQVFFEISGSRVHYSCPIIGGIRPRCNISETQISHIHDKISQYEEGLTKFIERMLNDPMIISRVKDVGVMDRKTAAKFHAVGPTARGSNVKSDMRKWGWVPEYDPYDFDEILFDSGDVFARLAVRFYECLESVKIIRQALDALKDTSDKRIYNPNYELNEFKPINCYTEAQRGEQYYSYGLDDEGLVRQAKIRTPTATNLGAMEDIVKGYHVSDAELIIASCDPCFTCTDRLMVLKEPFKK
protein production: failed

MEFQSTVVATVDCQKQVRSWRLLRSFIQLLIPTCNCTLVQELEQDNTNLRGKKLYNDIKSRTSSFRSSSSLSSSTVTGTIFGYRKGKINFCIQTPRKSTNLDLLLELAVPTTVLAREMREGALRIVLERNNEKQDDDSFLSKPFWNMYCNGKRVGYARKRSPSQDDMTALTALSKVVVGAGVVTGKELGRFDDELMYLRASFRRVNGSKESESFHLIDPAGNIGQELSIFIVPSSV
protein production: failed

MCSFFKKKLCIFFFILGNVVGWSSCVWGHLGSQYTIIGQSVISHSIDEIIQKQQQIIKILEQEIKNLQKDFANESANEYALAKVRLRARDINKRAIEAAFVLRNPLNDINVLLDQLKELQDEPKNLKERSHLIKKKAQINNMVLQFEEIFLATNKIVELSLSQSRELFKRTFKNRLEFSIPMLKYSVEKMKEASSDFLFLFSSWCKFVFHFKFLQLFLSFLVPLFVALGLSYFSRKVLAHVNCYFTKGNEEISYLQRLLVAFISILLPLLVCVVCVYLVFFLFHSFGMELGKLTTIFYTVGHQIILVFLINRLALVLLSLNMVHVRLFNITPFVAHQLVILLTFLGGILAFDAVLDSIYQVVSASLSLTIAKSFIAVFLFAILLFIISFVPLRFRRKSSQNEERETHFLPLYIRIPFIVLGLLLIVMDSLGYVGLAHFIMQQIVIGGAFLVLMYLGIKSAQVIGTKGQFMKTSVGHALMQWFHLEEKTMNKLGIVISVVLNLIVVILCAMPIAVQFGFSYSDLRRVLLQVMTGFQIGNISVSLISIVIGIIAFFACWFLNRRFICWLDGMVLVHGEFDSGVRNSIKTVISYAGVVVSALIGLSMAGLDLKNFALIAGGLSLGIGFGLQNIVQNFVSGLIILIGRPFKLGDYVEAGSVGGIVKRISVRATELETFQRKTIIIPNSSLINNNVSNWTRGSKMGRVDIPIVVSPNVAPERVVEILLEIASTTEGVLKNPAPQVSFTAFDSKKFSFSLAVYVPNITSSFKVTNALHFVLYKRFVQEGILEC
protein production: failed

MTERGLLIVLSGPSGVGKGTVREAVFKDPETSFDYSISMTTRLPREGEQDGVDYYFRSREVFEQAIKDGKMLEYAEYVGNYYGTPLEYVEEKLAAGVDIFLEIEVQGAMQVRKAMPEGIFIFLTPPDLSELKNRIIGRGTESMEVVEERMETAKKEIEMMASYDYAVVNDVVANAVQKIKGIVETEHLKTERVIHRYKKMLEGLQ
protein production: not failed

HQQQRSVMTEEYKVPDGMVGFIIGRGGEQISRIQQESGCKIQIAPDSGGLPERSCMLTGTPESVQSAKRLLDQIVEKGR
protein production: not failed

IPLKSIEVPFEGELLPGYAIISEDKAQDTLIVVGGGDTSREDLFYMLGYSGWEHDYNVLMVDLPGQGKNPNQGLHFEVDARAAISAILDWYQAPTEKIAIAGFSGGGYFTAQAVEKDKRIKAWIASTPIYDVAEVFRISFSTALKAPKTILKWGSKLVTSVNKVAEVNLNKYAWQFGQVDFITSVNEVLEQAQIVDYNKIDVPSLFLVGAGEDSELMRQSQVLYDNFKQRGIDVTLRKFSSESGADAHCQVNNFRLMHYQVFEWLNHIFKKKD
protein production: failed

MDLDVYVSAHRAEWDRLDDLLRRRRRLTGAEADELVALYQRTATHLSVIQSSAPDPQLTGRLSQLVARARSAVTGTRRASWRDVTRFLAYGFPAAVYRARHWWVPTALLSTVTAVLLGWWIGTHPEVQSSIAAPSELRALTRPGGEYETYYSSHPAASFAAQVWTNNAQAAAMCLVLGIFLGLPVLWILFQNMLNLGVGLGLMSSAGRLDTFLGLVLPHGLLELTAVFVAAGTGLRLGWTLIDPGPRSRRTALAEEGRAALGMAVGLALVLFVSGAIEGFVTPSGLPTWARIGIGIAAELAFLTYVYVLGGRATRAGDTGDIEAAERSATVPTAA
protein production: failed

MKRALEFLKECGVFYLATNEGDQPRVRPFGAVFEYEGKLYIVSNNTKKCFKQMIQNPKVEISGMNKKGQWIRLTGEVANDDRREVKELALEAVPSLKNMYSVDDGIFAVLYFTKGEGTICSFKGENETFSL
protein production: not failed

MVKHIVLFKLRDDVPVEEKLVVMNSFKEAIEALPAKISVIRKIEVGLNMNPGETWNIALYSEFDNLDDVKFYATHPEHVAAGKILAETKESRACVDYEF
protein production: not failed

METKTVAITMGDPAGIGPEIIVKALSEDGLNGAPLVVIGCLATLKRLQAKGITPNVELRAIERVAEARFAPGIIHVIDEPLAQPEALEAGKVQAQAGDLAYRCVKRATELALRGDVQAIATAPLNKEALHLAGHNYPGHTELLATLTHSRDYAMVLYTDKLKVIHVSTHIALRKFLDTLSTARVETVIGIADTFLKRVGYVKPRIAVAGVNPHAGENGLFGDEETRILTPAITDARAKGMDVYGPCPPDTVFLQAYEGQYDMVVAMYHDQGHIPLKLLGFYDGVNITAGLPFIRTSADHGTAFDIAWTGKAKSESMAVSIKLAMQLA
protein production: not failed

MSTVRSIYYRGSLEHCNYTCSYCPFGRKSVSADTTEDQEALDRFISRIGGWKYGSLRILIIPYGEAMIHRYYREGIMRLAAMPHVIGVSCQTNLSFSVSRFLDEAEAEQADVSKFRFWASYHPEMVGVGEFASKVEMLRAAGIGVCAGAVGDPSAKEQIRKLRQLLDPSVYLFVNAMQGLRKPLSEEDIRFFGEIDNLFDYDRRNAKACLDGCVGGRETLFIDRKGDMYACPRSGIRMGNFYDDSTSDFQPFCLRKVCDCYIAFSNLCDTPLRRMMGDGALWRIPERKKVEAVFFDVDGTLTDAQGRIPDRTVSVLEYMAKRLPLYLSTALPVSHAKKRLGNVFGLFSGGVFADGGLLCYGETIECVPIANPMTAGFPGCRVTRYTREGKVFKYAVLAPNTREAVRWLTELDEEAYQLYQEGRLLTVVDSKASKKNGLITLCARLGISLREVLVVGNTMHDWPMMSVAGYSCAVMDAEEKLRKLSGYVLNPDSIPVFFDILEHHHHHH
protein production: failed

QTVNHELQSKVSELSEANNDMKNLLNSTDIATLFLDDSLNIRRFTTRTASIIKLIASDIGRPITDIVTDLHYPALADDAQEVLRTLIFREKQVSANNDRWFSVKIMPYRTQENKIVGLVITFSDITTSKKLEA
protein production: failed

MKSITTDELKNKLLESKPVQIVDVRTDEETAMGYIPNAKLIPMDTIPDNLNSFNKNEIYYIVCAGGVRSAKVVEYLEANGIDAVNVEGGMHAWGDEGLEIKSI
protein production: failed

MPSPVEADAKVTMRLRYTKTGAMRYLSHLEMIGLFTRAVGRARLPIRFSQGFHPHPKFSFATALSVGVESWAEYLDMELIPSLTPGEVRDRLNAALPEGMRIVEAVVIPPGTPSLSVLMDKVRYRIILLEEAARDLAARAEAFLARDSFPLRRAKKGRIQEYDLEHHHHHH
protein production: failed

MYFSATLFNKYYKLLGTNDEGKLNLERTSSLAYFLALDQMQKDEEEPNAVINMYKDSLSRKNFMEKVGEIFVIAKNGSFEYQANILGCINKVEGGGNSMSSKTGKNFLSTQVISASSSPNPVGYPKRPAASFILELGFEIEGHKHGIKKSDSWKNNLMKFIEFRKCGTDTFPLIVFLLRDKQLNNNLDFNNAIREGLGSAYTQAVVDYLIVNAQVPSLVWDDLQNFATAPFTIDELDTELFMQDQPETNNLQPTVQVKEFKEIEIPNDISRNRIVYGAPGTGKSYKLNKDAKEFFPDDDLYIRVTLYPNYSYSQFVGTYKPTPIYKDVEGEFYKSDMVTSIGHGKEPLIDYTFVPGPFLIQLVNALKYPKSNFVIIIEEINRANAAAVFGDVFQLLDRKDDGESEYTITFNADVTNYLRKEGIFDLQIKIPKNLYIWATMNSADQGVTPLDTAFKRRWSFEYMPIDAGEGAVSSLEMELKFLENPILWNKFRKILNQKLKELMVPEDKLIGPFFMKSYELSNPESFKNKLLLYLRDDVLRHNATKFFKHQTFSDIVTAYDQGGNIFRTISKEELVRSE
protein production: not failed

MRWRSSRLGRAPLLGALAILWFAVLLPRGGTAGAGPGARGIRRSTGVCAGSRPRPAALLRRSAKVVAGFSVFGCPATAFESCVLSPAPSNSLASVFLLCLLPGLMEETIHTVSTEAFALQAEDPDHTILDVRPIAAYNGWPLQDESRSGHVPGAKSLPLQWTQYMDWVEVLDEKGLSQNAPVTVYGYTADAAAEMADKLSRLGFEAVGVYDGFLEDWAPDPDRPLQRMERYQQLVYPEWVQRLRTGETPPGMRGDDHVLCHAHFGYRQDYEDGHIPGAIPLNTNALESPETWNRRSPEELKSALEDHGIRHDTTVVLYGRFSYPTYDQDDPAQSAGHLGAMRCAALMLYAGVEDVKILNGGISTWESAGYDVSTDDVEPAPVDDFGAEVPAHPEYMLTLDEAKALLEADDGDLVSVRSWAEFIGERSGYHYIDKTGRIPGAVFGNCGSDAYHMENYRNFDYTTREFSEIAGKWAEMGITPDKHIAFYCGTGWRGSEAFMNAYLMGWPNISVYDGGWYEWSSHPDTETATGVPENDVPA
protein production: failed

MTMREYMLGNVAIARGLLEGGVQVIAGYPGTPSSEIIDTLASREDRDYHIEWSVNEKVAMEVAVGAAWTGVRSVVTMKHVGLNVAADPFMTLAYAGTKGGLIAIVADDPSCHSSQNEQDTRRYAQFALVPCFDPSTPQEAKDMLPYAFEFSEKFEIPVIFRPTTRISHGKSDIELGEIPAEKAVPHFEKLLDRWVMLPKNARPRHTHILSIQQAMEDELAESPWNSLEIKPGAKMGVIGSGIASVYAKEALQELGLEASFLKIGTYPVPKKLILELLSTVDTVLIFEELEPVVEEQVRILAQEAGLEVSVLGKEGGFVSREGELDVSAFLEALRKAFDLDIEPDSGKVPLELAPRPPSLCAGCSHRATFYSMKKVFGKDAIYPSDIGCYTLGIQSGTVETTLCMGSSISIASGLYHAGEKRPICCSIGDSTFFHTGMNSLLNAVFNKANITVTILDNRITAMTGHQPNPGVGFTVTGEPTVEVSLAELCKAMGAGFVTVVDPYNLEETQEAFKAAKEFEGTAVVIAKQPCVISGKRAGIKRVPYIVDPEKCEGCKQCVKFGCPAIEFDEENKCAVITSLCSGCGVCAQICKFDAIREVKR
protein production: failed

MSLATEGNGKVIHLTKAEFLAKVYNFEKNPEEWKYEGDKPAIVDFYADWCGPCKMVAPILDELAKEYDGQIVIYKVDTEKEQELAGAFGIRSIPSILFIPMEGKPEMAQGAMPKASFKKAIDEFLLKKEGHHHHHH
protein production: not failed

MMSQSERPDVAEIRVPFRDVDMNGQMFLASYISYAESVLASFWSSRPDVDDEPVYSPSKVSCFLHRPLHYDEPATFTATIDKIGVRSIGFLISIDTGEERAAEVEIIWQAHAPEDQSPASLPEETRDWLYRFLN
protein production: failed

MYRDRVRLPSLLDKVMSAAEAADLIQDGMTVGMSGFTRAGEAKAVPQALAMRAKERPLRISLMTGASLGNDLDKQLTEAGVLARRMPFQVDSTLRKAINAGEVMFIDQHLSETVEQLRNHQLKLPDIAVIEAAAITEQGHIVPTTSVGNSASFAIFAKQVIVEINLAHSTNLEGLHDIYIPTYRPTRTPIPLTRVDDRIGSTAIPIPPEKIVAIVINDQPDSPSTVLPPDGETQAIANHLIDFFKREVDAGRMSNSLGPLQAGIGSIANAVMCGLIESPFENLTMYSEVLQDSTFDLIDAGKLRFASGSSITLSPRRNADVFGNLERYKDKLVLRPQEISNHPEVVRRLGIIGINTALEFDIYGNVNSTHVGGTKMMNGIGGSGDFARNAHLAIFVTKSIAKGGNISSVVPMVSHVDHTEHDVDILVTEQGLADLRGLAPRERARVIIENCVHPSYQAPLLDYFEAACAKGGHTPHLLREALAWHLNLEERGHMLAG
protein production: not failed
